Test results: the supplement of paper PMC12764529
± gives the half width of the 95% confidence interval.

Assay: folding stability dG unfold from chymotrypsin proteolysis; higher = more stable
Summary of the method: (§1)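 Unfolding free energy was derived, per protease or combined, against a sequence-predicted unfolded-state K50 and a shared folded-state K50, starting from K50 inferred by Bayesian fitting of sequencing counts. Digestion with trypsin and chymotrypsin was carried out on designed mini-proteins under 80 residues without cysteine in a PA-tagged cDNA display construct. Only designs with AlphaFold2 dimer inter-PAE above 15 were kept.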

| Sequence | folding stability dG unfold [kcal/mol] |
| --- | --- |
| SAGEREELLERAKELARKLAEELGVEVEVTVTVEERDDSVTITVTVTVRNEDGSTHTFTFTFTLKKEDLSAG [r5_609_TrROS_Hall] | 5.55 ± 0.2 |
| SAKPPVIVIRIEKKEDGTYRVTIEVDGKEIEIEVPEGTSLEEILKKLAEELGVEVEVVEVKDGYLVIKPSAG [r14_404_TrROS_Hall] | 2.88 ± 0.092 |
| SAGGIELTIPLPNGMLIKIKIESIHIQPVPVWRKKKDPDGKPKDWEPQPFTFSISIRFSIEIYDPDDLSAGG [r13_848_TrROS] | 5.07 ± 0.16 |
| SAGGSAGGSAGGWYVQIKFPNNPIYISAEEIRDNPEVLKELEDEGYPIKNIEVMKPGEGSAGGSAGGSAGGS [r10_396_TrROS] | -0.5 ± 0.29 |
| SAGTADELVERAKEFARELAEEFGYKVDVDVKVQPTPDYYTIKVTVTFRNPGGMTWRFPFTITIPKEQFSAG [r5_609_TrROS] | 4.91 ± 0.14 |
| SAGGSAGGSAGMEPVYLLVKRTNPATGGREEALLAVPAEDLDAVREALEALPGVEEIEEISAGGSAGGSAGG [r17_438_TrMRF] | 1.18 ± 0.079 |
| SAGGSAEEDEVVTIRAVLENGEVRELEVKLPEGTRIYIPGTGEVREVPFGDEVPVPANSDLLVEPVSAGGSA [r15_152_TrMRF] | -0.642 ± 0.25 |
| SAGGSAISEEEPFVKIKVELESEPKEIILPKSDIVKIEVDEPDKIATIYLPSTGKFFPFKVLSVENSAGGSA [r15_495_TrMRF] | -0.343 ± 0.44 |
| SAGGSAGGSAGNWRWIMIPIKVPPGLEAGEEIEIKIPNGVEVWYHYNEPGTIWMMIRVPDSAGGSAGGSAGG [r11_362_TrROS] | 2.96 ± 0.037 |
| SARTLTITVPPGYRARVVVTLENGEPLELEVPPSESVTLTIPPGVPALVRVEVFYPDGSVGEFEVEVDDSAG [r14_568_TrMRF] | 4.76 ± 0.14 |
| SAGGSELKPGDLVVRIEIKVEVEEVRVNENGEVEVKLRVEIRIEVRPLPPPPEPSEEELLNPDGEESAGGSA [r2_495_TrROS_Hall] | 1.89 ± 0.12 |
| SAGMGVSTFPVEIVTKPDDITEEELKKRAIERLKKLFPGVKLKEVKFDIPVRELPGDEIVITMNITVNVSAG [r14_145_JUSTAS] | 1.01 ± 0.035 |
| SAGGSAGGSAGGDNWKIGIDIIPIRFTFEMTMKDGGKPRPMRMEFEVTIIVIKITPPGDSAGGSAGGSAGGS [r10_118_TrROS] | 5.1 ± 0.079 |
| SAGGSAGGSASIEITVKTKEEAKALAEALAKAGLVEVETLPDGSVKITVKPVKVEEVLKPPESAGGSAGGSA [r18_126_TrROS_Hall] | 2.61 ± 0.22 |
| SAGGSAGGSAERTLTITVPAAPGDIPALVAPDGSVYGIGDFEVIPGEGRVELKVTLVKPGDASAGGSAGGSA [r18_116_TrMRF] | 0.212 ± 0.032 |
| SAGGSAGGSMTTSTEVVELSGGSSLTVEREYTVEEVKVDDKWETVTHEVVTTPDSTTVREIKPSAGGSAGGS [r12_128_JUSTAS] | 0.621 ± 0.068 |

Assay: folding stability dG unfold (combined trypsin and chymotrypsin); higher = more stable
Summary of the method: as §1

| Sequence | folding stability dG unfold [kcal/mol] |
| --- | --- |
| SAGGFKIEYTGNYYTIELPGLKIMVNPNMGMMRIKLPGNGKKITIPVPMNNWEDMLDAVKEILKELGSAGGS [r8_447_TrROS] | 2.56 ± 0.26 |
| SAGGMVIPPEATLTGSTTSWVTTSDGRKLLVTTPVYRFPGNTTVVVSTVTDPTSAASTVTVSTEPALSAGGS [r16_370_JUSTAS] | 0.374 ± 0.085 |
| SAGGSAGGSAIKPGEKIKILVLVKDENGKEYLVKMEIEKLPDGKIKIKKVEIMSLEELKKLSAGGSAGGSAG [r3_212_TrROS_Hall] | 2.2 ± 0.13 |
| GMAPKTYTKEVEIKDSSGKPIKYKVTVTETALPDGSSESTITLTDPNSSKTTTINLSSPGKGLTPDDKILLS [r1_14_JUSTAS] | 0.899 ± 0.075 |
| SAFKILPDGTILIDIGEDEAKKLSIEEIEALVKEIEKLLPKDYKVEIHIIPKKPIPKPPLIPGKDNLIGSAG [r14_312_TrMRF] | 1.91 ± 0.071 |
| SAGGKEKYKVIEIKVKPEDVTAEELQAELEKKGYEIYVDGKKIKPGESVEDLLAKNPNATLTIVVKESAGGS [r8_38_TrROS_Hall] | 1.71 ± 0.2 |
| SAGGPEVKILSKSYNPEKNTVTYNLEVYYGGKKYGALAEIHYDPKTGKYTITVYYPDKPDYKETLTFNSAGG [r13_615_TrMRF] | 2.58 ± 0.21 |
| SAGGMPPENPAVVKVLAQKQKFEDLVKELKEKGIEAKLEKIEVVPETGKVTVTIKLPDGKEIVITIESAGGS [r8_277_JUSTAS] | 1.33 ± 0.21 |
| SAGGSAATVEVTRLPGGRYVVRLRNPDTDEEIVVELPVDASTTPEDVLEAARALVAELEEEGYTIESAGGSA [r15_1022_TrMRF] | 3.04 ± 0.058 |
| SLKNGDPIMVKIEIEQYNPKNGKPQEQKHSIMIPPGDPVTINIPGLPPGYKVRVEIYPMDGKPIGEHTIPSA [r9_478_TrROS] | 1.48 ± 0.14 |
| SAGGSGPSAPRTLTLDLPELPPGVKITVTVDFPGGRTFTGGVTERTATVDLPVPDGLEVESVTVQLESAGGS [r16_179_JUSTAS] | 0.0729 ± 0.085 |
| SAGGWIPPGAEIEIDEIGPDGTITVKIKYPDGKPMSITMRRQRDKDGKRYIELYFPGSGRPIASFPIKSAGG [r13_527_TrROS] | 1.78 ± 0.09 |
| SAMPIDITVEGVERPPDSVVVHLRLDPSVPSDLAVTVKVRGADGTVLEVPAEDRTATLRVPSSDVVVDLSAG [r14_350_JUSTAS] | 0.78 ± 0.16 |
| SAGGSAGGSSPVRTLTIPTENLTPEEILELVKNNPVDSVVLNADSEEEEKLKEELKKAGIKVLSAGGSAGGS [r12_610_JUSTAS] | -0.0698 ± 0.098 |
| SAGGSAGGDPRPVRVEVLRLEYDPPSGLLRALVRNPENDLLVFATLRIFPDPAGAELRVESVVFSAGGSAGG [r6_70_TrMRF] | 2.49 ± 0.11 |
| SAGEREELLERAKELARKLAEELGVEVEVTVTVEERDDSVTITVTVTVRNEDGSTHTFTFTFTLKKEDLSAG [r5_609_TrROS_Hall] | 5.43 ± 0.13 |

| Sequence | folding stability dG unfold [kcal/mol] |
| --- | --- |
| SAKPPVIVIRIEKKEDGTYRVTIEVDGKEIEIEVPEGTSLEEILKKLAEELGVEVEVVEVKDGYLVIKPSAG [r14_404_TrROS_Hall] | 2.84 ± 0.26 |
| SAGGIELTIPLPNGMLIKIKIESIHIQPVPVWRKKKDPDGKPKDWEPQPFTFSISIRFSIEIYDPDDLSAGG [r13_848_TrROS] | 4.97 ± 0.35 |
| SAGGSAGGSAGGWYVQIKFPNNPIYISAEEIRDNPEVLKELEDEGYPIKNIEVMKPGEGSAGGSAGGSAGGS [r10_396_TrROS] | 0.241 ± 0.14 |
| SAGTADELVERAKEFARELAEEFGYKVDVDVKVQPTPDYYTIKVTVTFRNPGGMTWRFPFTITIPKEQFSAG [r5_609_TrROS] | 4.29 ± 0.16 |
| SAGGSAGGSAGMEPVYLLVKRTNPATGGREEALLAVPAEDLDAVREALEALPGVEEIEEISAGGSAGGSAGG [r17_438_TrMRF] | 0.886 ± 0.079 |
| SAGGSAEEDEVVTIRAVLENGEVRELEVKLPEGTRIYIPGTGEVREVPFGDEVPVPANSDLLVEPVSAGGSA [r15_152_TrMRF] | -0.819 ± 0.62 |
| SAGGSAISEEEPFVKIKVELESEPKEIILPKSDIVKIEVDEPDKIATIYLPSTGKFFPFKVLSVENSAGGSA [r15_495_TrMRF] | -0.0342 ± 0.27 |
| SAGGSAGGSAGNWRWIMIPIKVPPGLEAGEEIEIKIPNGVEVWYHYNEPGTIWMMIRVPDSAGGSAGGSAGG [r11_362_TrROS] | 2.88 ± 0.085 |
| SARTLTITVPPGYRARVVVTLENGEPLELEVPPSESVTLTIPPGVPALVRVEVFYPDGSVGEFEVEVDDSAG [r14_568_TrMRF] | 4.79 ± 0.2 |
| SAGGSELKPGDLVVRIEIKVEVEEVRVNENGEVEVKLRVEIRIEVRPLPPPPEPSEEELLNPDGEESAGGSA [r2_495_TrROS_Hall] | 2.33 ± 0.27 |
| SAGMGVSTFPVEIVTKPDDITEEELKKRAIERLKKLFPGVKLKEVKFDIPVRELPGDEIVITMNITVNVSAG [r14_145_JUSTAS] | 1.33 ± 0.056 |
| SAGGSAGGSAGGDNWKIGIDIIPIRFTFEMTMKDGGKPRPMRMEFEVTIIVIKITPPGDSAGGSAGGSAGGS [r10_118_TrROS] | 4.89 ± 0.11 |
| SAGGSAGGSASIEITVKTKEEAKALAEALAKAGLVEVETLPDGSVKITVKPVKVEEVLKPPESAGGSAGGSA [r18_126_TrROS_Hall] | 2.17 ± 0.29 |
| SAGGSAGGSAERTLTITVPAAPGDIPALVAPDGSVYGIGDFEVIPGEGRVELKVTLVKPGDASAGGSAGGSA [r18_116_TrMRF] | -0.0227 ± 0.051 |
| SAGGSAGGSMTTSTEVVELSGGSSLTVEREYTVEEVKVDDKWETVTHEVVTTPDSTTVREIKPSAGGSAGGS [r12_128_JUSTAS] | 0.526 ± 0.19 |
